From US20110206658A1 (published 2011)

T1: human CD79b (TAHO5) (human, UniProt P40259 29-229)
T1 sequence: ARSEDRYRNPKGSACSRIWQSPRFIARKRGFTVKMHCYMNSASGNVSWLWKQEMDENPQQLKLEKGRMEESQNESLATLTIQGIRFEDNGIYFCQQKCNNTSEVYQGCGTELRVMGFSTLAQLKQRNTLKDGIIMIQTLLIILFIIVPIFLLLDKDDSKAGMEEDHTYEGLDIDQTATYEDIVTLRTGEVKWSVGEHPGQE

T2: cynomolgus CD79b (TAHO40) (cynomolgus monkey)
T2 chain: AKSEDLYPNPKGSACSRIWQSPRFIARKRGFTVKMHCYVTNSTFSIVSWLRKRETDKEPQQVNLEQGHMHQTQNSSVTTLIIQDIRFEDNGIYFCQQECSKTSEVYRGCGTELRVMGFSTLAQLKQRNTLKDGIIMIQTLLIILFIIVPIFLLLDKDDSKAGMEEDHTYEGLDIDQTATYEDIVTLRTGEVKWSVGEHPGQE


Assays:
[1] = biological target: T1, human CD79b (TAHO5); assay: cell-based or functional assay
[2] = biological target: T2, cynomolgus CD79b (TAHO40); assay: cell-based or functional assay

Binder	IC50 of tumor cell killing (CellTiter-Glo), non-transfected BJAB cells [1] [nM]	IC50 of tumor cell killing (CellTiter-Glo), BJAB-cyno CD79b cells [2] [nM]
anti-cyno CD79b (10D10)-SMCC-DM1 (antibody, V domains shown, DM1 linked through SMCC to the epsilon-amino group of lysines; drug to antibody ratio typically 3 to 4) VH: EVQLQESGPGLVKPSQSLSLTCTVTGYSITSDYAWNWIRQFPGNKLEWMGNIWYSGSTTYNPSLKSRISITRDTSKNQFFLQLNSVTSEDTATYYCSRMDFWGQGTTLTVSS VL: DIVLTQSPPSLAVSLGQRATISCRASESVDSYGKTFMHWHQQKPGQPPKLLIYRVSNLESGIPARFSGSGSRTDFTLTINPVEADDVATYYCQQSNEDPFTFGGGTKLEIKR	10	0.33
anti-cyno CD79b (10D10)-MC-MMAF (antibody, V domains shown, MMAF linked through the cysteine by the maleimidocaproyl (MC) linker; sites and load not stated) VH: EVQLQESGPGLVKPSQSLSLTCTVTGYSITSDYAWNWIRQFPGNKLEWMGNIWYSGSTTYNPSLKSRISITRDTSKNQFFLQLNSVTSEDTATYYCSRMDFWGQGTTLTVSS VL: DIVLTQSPPSLAVSLGQRATISCRASESVDSYGKTFMHWHQQKPGQPPKLLIYRVSNLESGIPARFSGSGSRTDFTLTINPVEADDVATYYCQQSNEDPFTFGGGTKLEIKR	694	0.07
